Tests used:
[1] = target: T1, Recombinant human LILRB2 protein (ELISA antigen) (human, UniProt Q8N423 22-460); experiment: ELISA, immobilized LILRB2-His; conditioned media of transient transfections
T1 construct: also called LILRB2-His; recombinant LILRB2
Method: (§1) To confirm binding to human and cynomolgus LILRB2, antibodies in supernatants were evaluated for binding by enzyme-linked immunosorbent assay (ELISA). Recombinant LILRB2 proteins (human: SEQ ID NO: 48; cynomolgus) were diluted in PBS to 2 μg/mL and added to 384-well high-binding ELISA plates (Greiner Bio-One Microlon™) at 25 μL/well and incubated at 4° C. overnight. The plates were washed three times with Wash Buffer (0.05% Tween® 20 in PBS), using a microplate washer and then blocked with 90 μL/well of ELISA Blocking Buffer A (1% BSA in PBS) for 1 hour at room temperature (RT). After blocking, 25 μL/well of LILRB2 antibodies or isotype control were added to the plates and incubated for 1 hour at RT. After primary antibody binding, plates were washed three times with Wash Buffer using a microplate washer. Secondary detection antibody (HRP-goat anti-rabbit Fab fragment) was diluted to 1:3000 in assay diluent (1% BSA in PBS) and 25 μL/well was added to plates and incubated at RT protected from light for 1 hour. Following incubation, plates were washed four times with Wash Buffer, using a microplate washer. After removal of the final wash, 25 μL/well of 1-Step™ Ultra TMB-ELISA Substrate Solution (Thermo Fisher, No. 34028) was added and plates were incubated for 5-10 min at RT, protected from light. After development, the reaction was stopped by addition of 25 μL/well of 0.3 M HCl, and plates were read using an EnVision (Perkin Elmer) microplate reader at 450 nm. EC₅₀ values were calculated based on log concentration of the primary antibodies at optical density at 450 nm.
Twenty-five IgG4 variants were expressed in mammalian cell culture as a combinatorial library of the five light and five heavy chains. In addition, B2A-IgG4 was included as a transfection control. The conditioned media from these transient transfections were assayed for human IgG concentration. A plate-based ELISA (see Example 2) was performed in which LILRB2-His was immobilized, and binding of humanized mAb variants was detected via an anti-human IgG4 HRP-labeled secondary antibody. The parental rabbit/human chimera clone transfection served as the benchmark EC₅₀ positive control.

LILRB2-Fc protein [2] = target: T2, LILRB2-Fc protein (human, UniProt Q8N423 22-460, limits assumed); experiment: blocking ELISA, LILRB2-Fc binding to coated monomer HLA-G; Exp I
T2 construct: also called human LILRB2-Fc; not shown: Fc part
T2 sequence (Q8N423 22-460 limits assumed): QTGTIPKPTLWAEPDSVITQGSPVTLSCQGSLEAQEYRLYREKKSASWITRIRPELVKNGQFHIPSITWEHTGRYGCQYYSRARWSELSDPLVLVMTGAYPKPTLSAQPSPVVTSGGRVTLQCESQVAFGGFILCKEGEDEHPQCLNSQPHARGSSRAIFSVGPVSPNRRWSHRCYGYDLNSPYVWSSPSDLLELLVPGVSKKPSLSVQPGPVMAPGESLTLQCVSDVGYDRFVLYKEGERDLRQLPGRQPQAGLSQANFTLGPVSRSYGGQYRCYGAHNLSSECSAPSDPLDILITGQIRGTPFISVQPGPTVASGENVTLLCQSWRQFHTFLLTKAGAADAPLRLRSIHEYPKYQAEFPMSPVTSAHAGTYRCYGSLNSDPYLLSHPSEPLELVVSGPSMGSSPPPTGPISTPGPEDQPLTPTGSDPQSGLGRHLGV
Method: (§2) Tumor-associated HLA-G is an HLA Class I ligand for LILRB2. Binding of HLA-G to LILRB2 induces an immune suppressive signal in LILRB2 expressing myeloid cells. To determine if the anti-LILRB2 antibodies block the HLA-G-LILRB2 interaction and prevent the induction of an inhibitory signal, blocking ELISA assays in a dose titration were performed. 384-well plates were coated with monomer HLA-G (Fred Hutchinson Cancer Research Center, No. bHLA-G) at a concentration of 5 μg/mL, diluted in PBS, then plates were incubated at RT for 1 hour. Plates were rinsed with Wash Buffer three times, then blocked with Blocking Buffer A for 30 minutes at RT. During blocking incubation step, LILRB2-Fc protein and antibody titrations were prepared in Blocking Buffer A. LILRB2-Fc protein was then incubated with antibody titrations for 30 minutes at RT to allow for binding prior to addition onto plate. Plates were rinsed three times with Wash Buffer, then 25 μL of protein/antibody mixture was added per well and incubated for 1 hour at RT. Following antibody incubation, plates were washed three times with Wash Buffer. Anti-human IgG Fc-HRP secondary antibody was diluted and added at 25 μL/well. Plates were incubated in the dark for 1 hour at RT. Following secondary antibody incubation, plates were washed four times with Wash Buffer. 25 μL/well ultra-neat TMB was added per well for development and incubated for 5 minutes at RT. Reaction was stopped using 0.3 M HCl (25 μL/well). Absorbance was read at 450 nm using the Envision. The IC₅₀ for HLA-G blocking by clone B2A-IgG4 was 0.066 μg/mL.
(§3) Select humanized IgG4 variant antibodies were tested for their ability to block binding of human LILRB2-Fc to monomer HLA-G by ELISA, using the method described in Example 7.

[3] = target: T3, Human LILRB2 on stably transduced HEK293T cells (human, UniProt Q8N423 22-597); experiment: flow cytometry, HEK293T cells stably expressing human LILRB2
T3 construct: Lentiviral transduction (G&P Biosciences LTV2992); also called HEK293T-LILRB2; LILRB2-expressing HEK293T cells
T3 sequence (Q8N423 other isoform, or with tags, fused parts or gaps limits assumed): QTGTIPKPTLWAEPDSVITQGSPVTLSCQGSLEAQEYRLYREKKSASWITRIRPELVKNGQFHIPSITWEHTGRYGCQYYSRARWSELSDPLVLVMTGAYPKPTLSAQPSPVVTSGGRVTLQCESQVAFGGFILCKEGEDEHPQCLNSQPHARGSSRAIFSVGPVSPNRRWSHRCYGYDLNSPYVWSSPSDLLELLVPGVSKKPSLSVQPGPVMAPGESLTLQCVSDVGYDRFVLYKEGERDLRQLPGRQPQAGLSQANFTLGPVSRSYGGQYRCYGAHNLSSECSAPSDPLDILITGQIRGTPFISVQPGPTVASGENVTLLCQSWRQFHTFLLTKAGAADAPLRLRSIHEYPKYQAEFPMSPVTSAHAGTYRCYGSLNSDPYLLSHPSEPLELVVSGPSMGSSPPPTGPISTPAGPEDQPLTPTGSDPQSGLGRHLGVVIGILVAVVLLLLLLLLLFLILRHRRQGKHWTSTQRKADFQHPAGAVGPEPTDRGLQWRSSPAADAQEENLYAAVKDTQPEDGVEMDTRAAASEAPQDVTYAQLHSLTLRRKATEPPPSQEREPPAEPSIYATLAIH
Method: To confirm binding of LILRB2 antibodies, flow cytometry binding assays were performed using HEK293T cells stably expressing human LILRB2 (Example 3). […] The B2A-IgG1 and B2A-IgG4 chimeras bound the LILRB2-expressing HEK293T cells, with equivalent EC₅₀ values of 0.21 nM and 0.30 nM respectively.
(§4) Select humanized variant antibodies were purified and tested for their ability to bind human LILRB2 by ELISA, using the method described in Example 2, and binding to HEK293T cells expressing human LILRB2, using the method described in Example 4. Representative data are shown for IgG4 variants in Table 6.

[4] = target: T1, Recombinant human LILRB2 protein (ELISA …); experiment: ELISA, plate-coated recombinant human LILRB2
Method: as §1, §4

LILRB2-Fc protein [5] = target: T2, LILRB2-Fc protein; experiment: blocking ELISA, LILRB2-Fc binding to coated monomer HLA-G; Exp II
Method: as §2, §3

[6] = target: T4, Human LILRB5 on transiently transfected HEK293-6E cells (human, UniProt O75023 24-590); experiment: flow cytometry, transiently transfected HEK293-6E cells
T4 construct: whole, on cells; also called hLILRB5
T4 sequence (O75023 24-590): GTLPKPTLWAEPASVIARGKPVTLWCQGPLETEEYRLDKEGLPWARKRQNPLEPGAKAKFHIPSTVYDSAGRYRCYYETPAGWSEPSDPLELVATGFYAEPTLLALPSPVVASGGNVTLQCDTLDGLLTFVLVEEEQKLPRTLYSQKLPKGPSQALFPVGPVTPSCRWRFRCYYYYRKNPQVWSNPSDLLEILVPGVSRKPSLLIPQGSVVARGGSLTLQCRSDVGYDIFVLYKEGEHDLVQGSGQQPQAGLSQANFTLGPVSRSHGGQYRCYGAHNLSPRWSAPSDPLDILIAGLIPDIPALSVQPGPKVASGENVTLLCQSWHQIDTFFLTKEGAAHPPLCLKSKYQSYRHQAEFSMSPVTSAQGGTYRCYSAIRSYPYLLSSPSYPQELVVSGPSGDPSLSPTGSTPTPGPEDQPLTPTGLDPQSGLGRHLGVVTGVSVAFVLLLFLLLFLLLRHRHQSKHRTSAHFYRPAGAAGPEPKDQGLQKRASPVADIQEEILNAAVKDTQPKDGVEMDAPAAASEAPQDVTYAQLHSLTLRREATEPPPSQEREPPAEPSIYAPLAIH
Method: (§5) To determine that the anti-LILRB2 antibodies specifically bind to LILRB2 and not other LILRB and LILRA family members, a cross-reactivity assay was performed. Cross-reactivity of the LILRB2 antibodies to other LILRB proteins was assessed by antibody binding to transiently transfected HEK293-6E cells, measured by flow cytometry. Binding was evaluated to HEK293-6E cells transiently transfected with human LILRB-1, -2, -3, -4, and 5 plasmids (Origene, Nos. RC219949, RC217935, RC211228, RC220932, RC206516) or to cells transiently transfected with human LILRA-1, -2, -4, -5, and -6 plasmids (Origene, Nos. RC210808, RC205626, RC220452, RC212310 RC212965). […] Murine primary antibodies to LILRA and LILRB targets and corresponding isotype controls were used to confirm specific binding of all targets tested (R&D Systems) while an AF647 F(ab′)₂ fragment goat anti-mouse antibody (Jackson ImmunoResearch, No. 115-606-062) was used for the detection of bound positive control antibodies. No binding of B2A-IgG4 or B2A-IgG1 to LILRB-1, -3, -4, or -5 was observed, and no binding of either antibody to LILRA-1, -2, -4, -5, or -6 was observed, confirming specificity of these antibodies.
(§6) Select humanized variant antibodies were tested for their ability to bind other LILRB or LILRA family members, using the method and commercially available positive control antibodies of Example 5.

[7] = target: T5, Human LILRA2 on transiently transfected HEK293-6E cells (human, UniProt Q8N149 24-483); experiment: as above
T5 construct: whole, on cells; also called hLILRA2
T5 sequence (Q8N149 24-483): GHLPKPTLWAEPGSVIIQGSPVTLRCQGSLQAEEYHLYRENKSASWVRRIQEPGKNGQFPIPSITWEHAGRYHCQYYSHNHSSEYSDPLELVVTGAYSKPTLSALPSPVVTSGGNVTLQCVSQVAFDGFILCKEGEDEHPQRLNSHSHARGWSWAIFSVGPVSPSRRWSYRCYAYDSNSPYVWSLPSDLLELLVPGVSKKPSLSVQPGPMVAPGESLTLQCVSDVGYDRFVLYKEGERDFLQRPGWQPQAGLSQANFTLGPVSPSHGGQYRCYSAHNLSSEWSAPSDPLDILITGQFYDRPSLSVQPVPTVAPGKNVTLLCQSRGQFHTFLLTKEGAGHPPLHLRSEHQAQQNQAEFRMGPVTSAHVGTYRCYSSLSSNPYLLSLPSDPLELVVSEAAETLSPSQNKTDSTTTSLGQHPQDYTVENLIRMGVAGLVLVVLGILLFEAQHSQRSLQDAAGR
Method: as §5, §6

[8] = target: T6, Human LILRA6 on transiently transfected HEK293-6E cells (human, UniProt Q6PI73 24-481); experiment: as above
T6 construct: whole, on cells; also called hLILRA6
T6 sequence (Q6PI73 24-481): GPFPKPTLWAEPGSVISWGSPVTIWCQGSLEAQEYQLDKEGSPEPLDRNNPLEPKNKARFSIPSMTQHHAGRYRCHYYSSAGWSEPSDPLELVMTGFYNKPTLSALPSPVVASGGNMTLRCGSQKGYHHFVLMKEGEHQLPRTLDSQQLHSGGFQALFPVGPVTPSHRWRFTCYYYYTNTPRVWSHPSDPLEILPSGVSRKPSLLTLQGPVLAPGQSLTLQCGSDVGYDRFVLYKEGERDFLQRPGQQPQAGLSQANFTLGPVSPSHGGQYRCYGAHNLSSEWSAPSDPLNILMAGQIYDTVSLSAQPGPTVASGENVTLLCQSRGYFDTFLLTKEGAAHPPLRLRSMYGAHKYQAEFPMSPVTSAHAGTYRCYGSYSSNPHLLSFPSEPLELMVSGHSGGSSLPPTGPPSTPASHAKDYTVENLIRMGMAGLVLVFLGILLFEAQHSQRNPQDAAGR
Method: as §5, §6

[9] = target: T7, Human LILRB3 on transiently transfected HEK293-6E cells (human, UniProt O75022 24-631); experiment: as above
T7 construct: whole, on cells; also called hLILRB3
Method: as §5, §6

[10] = target: T8, Human LILRA5 on transiently transfected HEK293-6E cells (human, UniProt A6NI73 42-299); experiment: as above
T8 construct: whole, on cells; also called hLILRA5
T8 sequence (A6NI73 42-299): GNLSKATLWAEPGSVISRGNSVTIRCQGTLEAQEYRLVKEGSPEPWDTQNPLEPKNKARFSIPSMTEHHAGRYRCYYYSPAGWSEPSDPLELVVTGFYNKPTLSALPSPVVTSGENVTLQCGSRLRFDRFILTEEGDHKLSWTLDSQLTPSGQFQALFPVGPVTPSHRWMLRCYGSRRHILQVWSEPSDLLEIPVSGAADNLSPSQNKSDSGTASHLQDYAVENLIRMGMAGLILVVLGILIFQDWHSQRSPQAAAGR
Method: as §5, §6

[11] = target: T9, Human LILRA1 on transiently transfected HEK293-6E cells (human, UniProt O75019 17-489); experiment: as above
T9 construct: whole, on cells; also called hLILRA1
T9 sequence (O75019 17-489): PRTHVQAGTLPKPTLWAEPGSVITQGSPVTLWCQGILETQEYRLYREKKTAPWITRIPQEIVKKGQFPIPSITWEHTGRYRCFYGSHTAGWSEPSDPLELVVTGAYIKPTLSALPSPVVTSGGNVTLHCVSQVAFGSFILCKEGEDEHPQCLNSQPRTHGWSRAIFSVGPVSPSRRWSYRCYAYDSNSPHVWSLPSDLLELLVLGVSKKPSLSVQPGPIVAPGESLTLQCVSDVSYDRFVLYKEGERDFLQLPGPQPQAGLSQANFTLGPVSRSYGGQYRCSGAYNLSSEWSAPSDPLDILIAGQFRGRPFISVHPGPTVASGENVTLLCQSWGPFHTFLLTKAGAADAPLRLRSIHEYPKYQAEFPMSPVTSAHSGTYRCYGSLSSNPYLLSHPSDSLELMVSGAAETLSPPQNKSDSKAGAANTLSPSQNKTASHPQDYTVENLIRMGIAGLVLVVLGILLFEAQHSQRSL
Method: as §5, §6

[12] = target: T10, Human LILRB2 on transiently transfected HEK293-6E cells (human, UniProt Q8N423 22-597); experiment: as above
T10 construct: whole, on cells; also called hLILRB2
Method: as §5, §6

[13] = target: T11, Human LILRB4 on transiently transfected HEK293-6E cells (human, UniProt Q8NHJ6 22-448); experiment: as above
T11 construct: whole, on cells; also called hLILRB4
Method: as §5, §6

[14] = target: T12, Human LILRB1 on transiently transfected HEK293-6E cells (human, UniProt Q8NHL6 24-650); experiment: as above
T12 construct: whole, on cells; also called hLILRB1
T12 sequence (Q8NHL6 24-650): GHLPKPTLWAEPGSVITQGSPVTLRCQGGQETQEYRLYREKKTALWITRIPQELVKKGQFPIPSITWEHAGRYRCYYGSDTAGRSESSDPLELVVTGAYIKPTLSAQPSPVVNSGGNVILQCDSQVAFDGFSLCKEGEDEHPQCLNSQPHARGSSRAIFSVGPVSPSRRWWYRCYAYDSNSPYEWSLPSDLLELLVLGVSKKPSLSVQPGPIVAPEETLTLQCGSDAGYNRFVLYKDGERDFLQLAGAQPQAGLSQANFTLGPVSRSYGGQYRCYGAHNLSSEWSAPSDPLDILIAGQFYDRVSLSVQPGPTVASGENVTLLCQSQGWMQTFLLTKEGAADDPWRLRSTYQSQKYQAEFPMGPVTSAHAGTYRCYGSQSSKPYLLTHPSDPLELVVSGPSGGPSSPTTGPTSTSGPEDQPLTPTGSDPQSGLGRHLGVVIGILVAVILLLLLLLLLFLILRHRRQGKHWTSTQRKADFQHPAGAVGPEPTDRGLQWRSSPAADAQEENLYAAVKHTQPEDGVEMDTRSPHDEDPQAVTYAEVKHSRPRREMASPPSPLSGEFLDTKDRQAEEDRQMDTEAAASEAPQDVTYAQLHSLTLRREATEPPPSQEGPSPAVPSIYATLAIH
Method: as §5, §6

[15] = target: T13, Human LILRA4 on transiently transfected HEK293-6E cells (human, UniProt P59901 24-499); experiment: as above
T13 construct: whole, on cells; also called hLILRA4
T13 sequence (P59901 24-499): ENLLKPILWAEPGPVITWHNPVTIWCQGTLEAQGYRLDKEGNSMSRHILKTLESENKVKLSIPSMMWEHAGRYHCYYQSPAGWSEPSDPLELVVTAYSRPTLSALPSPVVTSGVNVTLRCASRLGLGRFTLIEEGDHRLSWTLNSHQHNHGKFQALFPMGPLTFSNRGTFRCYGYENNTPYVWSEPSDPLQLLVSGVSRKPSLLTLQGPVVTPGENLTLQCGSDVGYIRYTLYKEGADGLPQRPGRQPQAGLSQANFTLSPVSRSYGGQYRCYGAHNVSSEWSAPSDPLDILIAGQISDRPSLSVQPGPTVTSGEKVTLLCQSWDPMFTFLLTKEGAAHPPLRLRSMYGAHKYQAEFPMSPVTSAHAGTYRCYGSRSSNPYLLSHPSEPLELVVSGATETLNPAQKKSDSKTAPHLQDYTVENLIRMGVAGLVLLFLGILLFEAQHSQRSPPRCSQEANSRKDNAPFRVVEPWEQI
Method: as §5, §6

[16] = target: T4, Human LILRB5 on transiently transfected …; experiment: as above; remark: listed apart in the source
[17] = target: T5, Human LILRA2 on transiently transfected …; experiment: as above; remark: listed apart in the source
[18] = target: T6, Human LILRA6 on transiently transfected …; experiment: as above; remark: listed apart in the source
[19] = target: T7, Human LILRB3 on transiently transfected …; experiment: as above; remark: listed apart in the source
[20] = target: T8, Human LILRA5 on transiently transfected …; experiment: as above; remark: listed apart in the source
[21] = target: T9, Human LILRA1 on transiently transfected …; experiment: as above; remark: listed apart in the source
[22] = target: T11, Human LILRB4 on transiently transfected …; experiment: as above; remark: listed apart in the source
[23] = target: T12, Human LILRB1 on transiently transfected …; experiment: as above; remark: listed apart in the source
[24] = target: T13, Human LILRA4 on transiently transfected …; experiment: as above; remark: listed apart in the source

T1 sequence (Q8N423 other isoform, or with tags, fused parts or gaps limits assumed): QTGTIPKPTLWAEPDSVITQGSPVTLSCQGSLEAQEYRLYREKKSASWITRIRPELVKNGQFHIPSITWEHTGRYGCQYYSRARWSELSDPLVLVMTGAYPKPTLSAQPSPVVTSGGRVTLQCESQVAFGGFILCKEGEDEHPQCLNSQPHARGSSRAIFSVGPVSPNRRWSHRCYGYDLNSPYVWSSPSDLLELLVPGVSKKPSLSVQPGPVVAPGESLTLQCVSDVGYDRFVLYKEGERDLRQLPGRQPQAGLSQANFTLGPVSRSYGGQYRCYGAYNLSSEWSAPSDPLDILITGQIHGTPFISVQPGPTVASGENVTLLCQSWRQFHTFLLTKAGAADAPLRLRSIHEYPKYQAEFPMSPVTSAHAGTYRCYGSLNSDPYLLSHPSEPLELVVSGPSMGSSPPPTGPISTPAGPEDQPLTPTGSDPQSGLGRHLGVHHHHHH

B1: B2H4-35 (antibody, V domains shown)
VH: QVQLVESGGRVVQPGTPLRLSCAASGFSLSTYAMSWVRQAPGKGLEWVAWIYNDGSTYYAAWAKGRFTISRDTSKNTLYLQTNSLKPDDTAVYYCAREGDYIGYFNIWGQGTLVTVSS
VL: DVVMTQTPSSVSAALGGTVTIKCQASQSIGSNLAWYQLKPGQRPKLLIYAAATLASGGSSRFKGSGSGTDFTLTISSLEPADAATYYCQSYVSGSSDVAFGGGTEVVVK
notes: Humanized variant, human IgG4 / kappa
[1]
  EC50: 4.67 ng/mL
LILRB2-Fc protein [2]
  IC50: 5.16 µg/mL
[3]
  BMAX [gMFI]: 9990 gMFI
  EC50: 0.21 ng/mL
[4]
  EC50: 2.75 ng/mL
LILRB2-Fc protein [5]
  IC50: 5.14 µg/mL

B2: B2H4-13 (antibody, V domains shown)
VH: QVQLEESGGRVVQPGRSLRLSCAASGFSLSTYAMSWVRQAPGKGLEWIGWIYNDGSTYYAAWAKGRFTISKDTSKTTVFLQMNSLKPDDTATYFCAREGDYIGYFNIWGQGTLVTVSS
VL: DIEMTQSPSSVSASVGDRVTLTCQASQSIGSNLAWYQQKPGQAPKLLIYAAATLASGVPSRFKGSGSGTDFTLTISSLQPEDFATYYCQSYVSGSSDVAFGGGTEVVVK
notes: as for B1
[1]
  EC50: 4.5 ng/mL
LILRB2-Fc protein [2]
  IC50: 5.85 µg/mL
[3]
  BMAX [gMFI]: 9950 gMFI
  EC50: 0.31 ng/mL
[4]
  EC50: 3.55 ng/mL
LILRB2-Fc protein [5]
  IC50: 5.97 µg/mL

B3: B2H1-11 (antibody, V domains shown)
VH: QVQLEESGGRVVQPGRSLRLSCAASGFSLSTYAMSWVRQAPGKGLEWIGWIYNDGSTYYAAWAKGRFTISKDTSKTTVFLQMNSLKPDDTATYFCAREGDYIGYFNIWGQGTLVTVSS
VL: DIQMTQSPSSLSASVGDRVTITCQASQSIGSNLAWYQLKPGQRPKLLIYAAATLASGVPSRFKGSGSGTDFTLTISSLQSEDAATYYCQSYVSGSSDVAFGGGTEVVVK
notes: Humanized variant, human IgG1 / kappa
[6]
  Bmax (MFI): 147 MFI
[7]
  Bmax (MFI): 36.1 MFI
[8]
  Bmax (MFI): 210 MFI
[9]
  Bmax (MFI): 142 MFI
[10]
  Bmax (MFI): 124 MFI
[11]
  Bmax (MFI): 776 MFI
[12]
  Bmax (MFI): 11000 MFI
[13]
  Bmax (MFI): 38 MFI
[14]
  Bmax (MFI): 39.8 MFI
[15]
  BMAX [gMFI]: 108 gMFI
[16]
  binding result: no binding
[17]
  binding result: no binding
[18]
  binding result: no binding
[19]
  binding result: no binding
[20]
  binding result: no binding
[21]
  binding result: no binding
[22]
  binding result: no binding
[23]
  binding result: no binding
[24]
  binding result: no binding

Reference: patent US20240132589A1 (ONCORESPONSE, published 2024)
